The source of these data is PMC9084902, “Low-Molecular Weight Protamine Overcomes Chondroitin Sulfate Inhibition of Neural Regeneration” (Frontiers in Cell and Developmental Biology, 2022).

One data set relates to cervical spinal cord. Briefly: distribution of fluorescent LMWP to spinal cord after subcutaneous administration. It counts as in vivo, mouse. The note with it: 2 h, confocal. As for the experimental part:
The TAMRA-labelled LMWP was obtained from commercial provider Caslo ApS (DK-2800, Kongens Lyngby, Denmark). Sixteen micrograms of TAMRA-LMWPor unconjugated TAMRA (in 200 ul of 0.9% NaCl) was injected subcutaneously to upper back area to healthy adult mice (n = 2–3 animals/group). At the end of the experiment (2 h after injection), the animals were perfused with PBS and then with 4% paraformaldehyde (PFA) in PBS. The spinal cord was dissected and further fixed in PFA overnight. One hundred µm-thick longitudinal sections of the cervical spinal cord were cut with vibratome and imaged with Zeiss LSM880 confocal, 20x objective.

The test system of data set [1] is hippocampal neurons. Briefly: neurite outgrowth on aggrecan substrate, hippocampal neurons. The format is cell-based, Wistar rat. The note with it: hippocampal neurons (E17 rat), 2 days on aggrecan; 10 μg/ml, precoated with aggrecan or soluble in medium; about 70 neurons/replicate, normalized to control; n = 3; Figure 2L. As for the experimental part:
(§1) The cortex or hippocampus were obtained from 17 days-old Wistar rat embryos and transferred to ice-cold preparation solution. Neurons were further isolated exactly as described earlier in Sahu’s publication ([Sahu et al., 2019]). Primary rat cortical or hippocampal neurons (E17 Wistar rats) were cultured in 96-well plates at the density of 20000 cells/well in Neurobasal medium supplemented with B27 serum substitute, penicillin, streptomycin and L-glutamate for 2 days in vitro (DIV). The plates were precoated with aggrecan (5 ug/ml, 150 µl/well). Protamine or protamine peptides were added to the culture medium at different concentrations. To analyze the effect of protamine or its fragment on neurite outgrowth, the plates were coated with 10 μg/ml of protamine or LMWP. For the experiment with chondroitinase, the aggrecan-coated plates were treated with chondroitinase ABC (Amsbio AMS. E1028, lot CF0029) for 4 h followed by 2 times washing with PBS before cell plating, and the cell culture imaging was carried out after 3 DIV incubation with 4 uM LMWP added to the medium. Neurite outgrowth was imaged with phase contrast microscopy (Olympus IX70 microscope and Retiga 2000R digital camera) using both x10 and x20 objectives. Processes of neurons over the diameter of the neuronal soma were interpreted as neurites. Neurite length was measured with ImageJ software and averaged from 2 to 3 independent experiments with 1–2 technical replicas in each independent experiment.

The subject of data set [2] is hippocampal neurons. Briefly: neurite outgrowth on precoated plastic without aggrecan, hippocampal neurons. The format is cell-based, Wistar rat. The note with it: precoated 10 μg/ml on plastic, no aggrecan, 2 days; about 70 neurons/replicate; p < 0.0001, n = 7. As for the experimental part: as §1, with “Processes of neurons over the diameter of the neuronal soma were interpreted as neurites.” left out

Data set [3] deals with hippocampal neurons. Briefly: cell toxicity seen in neuronal morphology / neuronal cells in vitro. It counts as cell-based, Wistar rat. As for the experimental part:
as §1

The next data set has as its system brain cortex tissue. Briefly: in vivo TUNEL apoptosis assay after cortical injection. The note with it: 1.5 μl cortical injection, 0.1 or 1 mg/ml, 3 days. How it is done:
For TUNEL apoptosis assay, 1.5 μl of protamine (0.1 mg/ml or 1 mg/ml) or LMWP (0.1 mg/ml or 1 mg/ml) was bilaterally injected to the adult C57Bl6 mouse (n = 10 total) into motor (ML: 1.5; AP: 2) and somatosensory (ML: 1.5; AP: −1.8) cerebral cortex 500–700 micrometers below the brain surface (4 injection sites per concentration of injected protamine and 6 injections per concentration of injected LMWP). After 3 days the animals were anesthetized with pentobarbital sodium and perfused with PBS and then 4%PFA. After paraffine embedding the brains were cut into 7 µm coronal sections. Staining was performed according to the protocol recommended by the commercial TUNEL assay kit (Dead End Fluorometric TUNEL System, Promega). Sections treated with DNase I were used as positive controls. Vectoshield medium with DAPI (Vector Laboratories) was used to visualize nuclei. Images were collected with Axio Imager M.1 fluorescent microscope (Zeiss), AxioCam HR3 digital camera and x10 0.45 NA objective (Carl Zeiss Microscopy) and analyzed with automatic cell counting using FIJI software (Image J, open-source). The fractions of TUNEL positive cells were calculated and averaged over 5 sections per mouse per injection place.

For data set [4] the following is noted: ref Kaneda et al., 2005; Bromfield et al., 2013; cited from earlier work. An excerpt:
Protamine is a small 33 amino acid long protein that takes part in DNA packing during spermatogenesis ([Kasinsky et al., 2011]). Over 60% of the salmon protamine sequence is comprised of arginines so that it interacts strongly with negatively charged DNA phosphates in vivo and potentially with any other negatively charged molecules. […] Protamine sulfate is therefore widely used as a drug in cardiopulmonary bypass surgery to stop the effect of heparin ([Kaneda et al., 2005]; [Bromfield et al. ... || The CS chains even enhance the neurite outgrowth-promoting effect of HB-GAM, and we have ended up in a model according to which the CS chains of the CSPGs display a positive role by concentrating HB-GAM on the matrix and presenting it to neuron surface receptors. According to our model, two polycationic regions separated by a linker are essential to reverse the CS inhibition of neurite outgrowth ([Paveliev et al., 2016]; [Rauvala et al., 2017]). To test our hypothesis we decided to search for peptide structures that are similar to HB-GAM and display similar binding properties. Protamine displa ...

The conditions of data set [5]: attenuated total reflectance Fourier transform infrared spectroscopy; ref Umerska et al., 2015; cited from earlier work. The text has this:
Chondroitin sulfates (CS) bare multiple negative charges due to sulfate and carboxyl groups while protamine is a polycation at physiological pH values. […] As an FDA-approved drug for human use as anti-heparin, protamine might in addition have potential to overcome the regeneration inhibiting effe ...

The subject of data set [6] is oligodendrocyte differentiation. The note with it: ref Kuboyama et al., 2017; cited from earlier work. An excerpt: The CS chains even enhance the neurite outgrowth-promoting effect of HB-GAM, and we have ended up in a model according to which the CS chains of the CSPGs display a positive role by concentrating HB-GAM on the matrix and presenting it to neuron surface receptors. According to our model, two polycationic regions separated by a linker are essential to reverse the CS inhibition of neurite outgrowth ([Paveliev et al., 2016]; [Rauvala et al., 2017]). To test our hypothesis we decided to search for peptide structures that are similar to HB-GAM and display similar binding properties. Protamine displa ...

For data set [7], the system named is PTPRZ (protein tyrosine phosphatase receptor type Z). The conditions noted are these: ref Kuboyama et al., 2017; cited from earlier work. An excerpt:
In the case of HB-GAM we have identified glypican-1 as a neuron surface receptor using unbiased mass spectrometry search of neuron binding sites for the substrate-attached HB-GAM ([Paveliev et al., 2016]). […] Interaction of glypican-1 with LMWP also appears likely since LMWP binds to heparin/heparan sulfate chains. Another possible cell surface receptor of LMWP is the transmembrane receptor PTPRZ (protein tyrosine ph ...

The nature of data set [8]: solid phase binding of mutated PTPσ ectodomain to aggrecan. The conditions noted are these: 80 nM, 10 μg/ml aggrecan coating, overnight 4°C, HRP anti-Fc/OPD 492 nm. The text has this: The N-terminal extracellular part of PTPσ (protein tyrosine phosphatase sigma; PTPRS) that contains the three Ig domains (amino acids 1-321) and mediates CSPG binding ([Shen et al., 2009]) was cloned using the PTPσ cDNA kindly provided by Dr. John Flanagan (Harvard University). The PTPσ mutant lacking the CS binding site in the Ig1 domain was produced as described ([Shen et al., 2009]). The recombinants were produced as Fc-tagged proteins in 293T HEK cells and purified on protein A Sepharose.
The competition assay for LMWP in binding of PTPσ to aggrecan was done in a similar way as earlier ([Paveliev et al., 2016]). Briefly, after overnight coating with 10 μg/ml aggrecan (150 ul/well) at 4°C 96-well tissue culture plates (Nunc) were washed two times with 0.05% Tween-20 in PBS and were blocked for 1 h at room temperature with 1%BSA and 0.05% Tween-20 in PBS. The recombinant wild type PTPσ ectodomain or the mutated ectodomain lacking CS binding (80 nM) were mixed with different concentrations of LMWP in 1% BSA and 0.05% Tween-20 in PBS, and were incubated in the plates overnight at 4°C. After washing with 0.05% Tween20 (3 times, room temperature), the wells were incubated for 1 h (room temperature) with HRP conjugated goat anti-human FC part of IgG (1:5000, in 1% BSA and 0.05% Tween20 PBS) to detect the bound PTPσ. […]

Ends that are not written are not given here.

Consider “TAMRA-LMWP: fluorescent TAMRA-labelled LMWP (Caslo ApS) (VSRRRRRRGGRRRR; also: TAMRA label, site not given here)”, for which the “fluorescent signal in spinal cord parenchyma” value in the data set on cervical spinal cord (16 µg s.c. in 200 µl 0.9% NaCl, compared to TAMRA or noninjected animals, n = 2–3) is “clear fluorescent signal in the spinal cord parenchyma”. In addition, in the data set with cervical spinal cord (16 µg s.c., cervical region), the “parenchymal accumulation in spinal cord” value is given as “Parenchymal accumulation” and the “perivascular accumulation in spinal cord” value is “Perivascular accumulation”.

As to protamine, in the data set with hippocampal neurons [1], the “reversal of the inhibitory effect of aggrecan on neurite outgrowth (comparison among fragments)” value is on record as “lower efficacy in the neurite outgrowth assay”. The “total neurite length versus uncoated control” value with hippocampal neurons [2] is given as “increased the total neurite length as compared to the parallel control cultures”. Further, in the data set on hippocampal neurons [3] (hippocampal neurons, 2 days on aggrecan, 10 μg/ml, black arrows point to dead cells, Figure 2E,G), the “signs of cell toxicity in neuronal morphology” value was “Signs of cell toxicity were observed in neuronal morphology”. Also, in the data set with hippocampal neurons [3] (neuronal systems, Figures 2, 4), the “toxicity for neuronal cells (summary)” value is “toxic for neuronal cells”. The “apoptotic cells in brain cortex (TUNEL staining)” value in the data set with brain cortex tissue is on record as “high amount of apoptotic cells in brain cortex tissue”. Moreover, the affinity for heparin entry in [4] was “binds the glycosaminoglycan heparin with high affinity”. In addition, the “polyion complexation with CS” value in [5] was “Polyion complexation of CS with protamine was demonstrated”. Moreover, in [6], the “effect on CSPG-mediated inhibition of oligodendrocyte differentiation” value was “neutralizes the CSPG-mediated inhibition of oligodendrocyte differentiation”. In addition, the “binding to PTPRZ” value in data set [7] is given as “known to bind protamine”.

B1: recombinant ectodomain of PTPσ mutated in a critical lysine residue: PTPσ mutant lacking the CS binding site in the Ig1 domain, Fc-tagged, produced in 293T HEK cells (protein, UniProt Q13332 30-1282, looked up)
extracellular domain: EEPPRFIKEPKDQIGVSGGVASFVCQATGDPKPRVTWNKKGKKVNSQRFETIEFDESAGAVLRIQPLRTPRDENVYECVAQNSVGEITVHAKLTVLREDQLPSGFPNIDMGPQLKVVERTRTATMLCAASGNPDPEITWFKDFLPVDPSASNGRIKQLRSETFESTPIRGALQIESSEETDQGKYECVATNSAGVRYSSPANLYVRELREVRRVAPRFSILPMSHEIMPGGNVNITCVAVGSPMPYVKWMQGAEDLTPEDDMPVGRNVLELTDVKDSANYTCVAMSSLGVIEAVAQITVKSLPKAPGTPMVTENTATSITITWDSGNPDPVSYYVIEYKSKSQDGPYQIKEDITTTRYSIGGLSPNSEYEIWVSAVNSIGQGPPSESVVTRTGEQAPASAPRNVQARMLSATTMIVQWEEPVEPNGLIRGYRVYYTMEPEHPVGNWQKHNVDDSLLTTVGSLLEDETYTVRVLAFTSVGDGPLSDPIQVKTQQGVPGQPMNLRAEARSETSITLSWSPPRQESIIKYELLFREGDHGREVGRTFDPTTSYVVEDLKPNTEYAFRLAARSPQGLGAFTPVVRQRTLQSKPSAPPQDVKCVSVRSTAILVSWRPPPPETHNGALVGYSVRYRPLGSEDPEPKEVNGIPPTTTQILLEALEKWTQYRITTVAHTEVGPGPESSPVVVRTDEDVPSAPPRKVEAEALNATAIRVLWRSPAPGRQHGQIRGYQVHYVRMEGAEARGPPRIKDVMLADAQWETDDTAEYEMVITNLQPETAYSITVAAYTMKGDGARSKPKVVVTKGAVLGRPTLSVQQTPEGSLLARWEPPAGTAEDQVLGYRLQFGREDSTPLATLEFPPSEDRYTASGVHKGATYVFRLAARSRGGLGEEAAEVLSIPEDTPRGHPQILEAAGNASAGTVLLRWLPPVPAERNGAIVKYTVAVREAGALGPARETELPAAAEPGAENALTLQGLKPDTAYDLQVRAHTRRGPGPFSPPVRYRTFLRDQVSPKNFKVKMIMKTSVLLSWEFPDNYNSPTPYKIQYNGLTLDVDGRTTKKLITHLKPHTFYNFVLTNRGSSLGGLQQTVTAWTAFNLLNGKPSVAPKPDADGFIMVYLPDGQSPVPVQSYFIVMVPLRKSRGGQFLTPLGSPEDMDLEELIQDISRLQRRSLRHSRQLEVPRPYIAARFSVLPPTFHPGDQKQYGGFDNRGLEPGHRYVLFVLAVLQKSEPTFAASPFSDPFQLDNPDPQPIVDGEEG
modifications: extracellular domain lysine mutation in Ig1 (position not given); Fc tag
As to B1, the “binding to CS chains of aggrecan” value in data set [8] is “lacks the ability to bind to CS chains of the aggrecan substrate”.
